Experiment [1] deals with TRFE receptor, TRF1, on Rat2 fibroblasts (rat) (UniProt Q99376). Nature of the experiment: HATRIC-LRC (LRC-TriCEPS) ligand-receptor capture on Rat2 fibroblasts, LC-MS/MS; positive control of the screen.
The target in experiment [2] is GPC4 on HEK293A cells (human) (UniProt O75487). Nature of the experiment: HATRIC-LRC (LRC-TriCEPS) ligand-receptor capture on HEK293A cells, LC-MS/MS; reference BSA control ligand.
In experiment [3] the target is CCN1 found in the HEK293A cell screen (human) (UniProt O00622). Described as above.
Chain of UniProt O00622 (O00622 25-381 limits assumed): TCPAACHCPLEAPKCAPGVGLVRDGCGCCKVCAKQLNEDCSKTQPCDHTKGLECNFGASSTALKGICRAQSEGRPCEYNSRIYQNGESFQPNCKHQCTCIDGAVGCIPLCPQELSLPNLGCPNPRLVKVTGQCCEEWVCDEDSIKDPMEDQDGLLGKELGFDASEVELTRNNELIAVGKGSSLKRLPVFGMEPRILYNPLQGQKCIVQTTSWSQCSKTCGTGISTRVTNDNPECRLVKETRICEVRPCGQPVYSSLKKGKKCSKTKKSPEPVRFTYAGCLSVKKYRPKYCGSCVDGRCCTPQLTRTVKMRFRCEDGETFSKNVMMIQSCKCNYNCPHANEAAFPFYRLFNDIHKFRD
Experiment [4] deals with PTK7 on HEK293A cells (human) (UniProt Q13308). The experiment is described as above.
Chain of UniProt Q13308 (Q13308 31-1070 limits assumed): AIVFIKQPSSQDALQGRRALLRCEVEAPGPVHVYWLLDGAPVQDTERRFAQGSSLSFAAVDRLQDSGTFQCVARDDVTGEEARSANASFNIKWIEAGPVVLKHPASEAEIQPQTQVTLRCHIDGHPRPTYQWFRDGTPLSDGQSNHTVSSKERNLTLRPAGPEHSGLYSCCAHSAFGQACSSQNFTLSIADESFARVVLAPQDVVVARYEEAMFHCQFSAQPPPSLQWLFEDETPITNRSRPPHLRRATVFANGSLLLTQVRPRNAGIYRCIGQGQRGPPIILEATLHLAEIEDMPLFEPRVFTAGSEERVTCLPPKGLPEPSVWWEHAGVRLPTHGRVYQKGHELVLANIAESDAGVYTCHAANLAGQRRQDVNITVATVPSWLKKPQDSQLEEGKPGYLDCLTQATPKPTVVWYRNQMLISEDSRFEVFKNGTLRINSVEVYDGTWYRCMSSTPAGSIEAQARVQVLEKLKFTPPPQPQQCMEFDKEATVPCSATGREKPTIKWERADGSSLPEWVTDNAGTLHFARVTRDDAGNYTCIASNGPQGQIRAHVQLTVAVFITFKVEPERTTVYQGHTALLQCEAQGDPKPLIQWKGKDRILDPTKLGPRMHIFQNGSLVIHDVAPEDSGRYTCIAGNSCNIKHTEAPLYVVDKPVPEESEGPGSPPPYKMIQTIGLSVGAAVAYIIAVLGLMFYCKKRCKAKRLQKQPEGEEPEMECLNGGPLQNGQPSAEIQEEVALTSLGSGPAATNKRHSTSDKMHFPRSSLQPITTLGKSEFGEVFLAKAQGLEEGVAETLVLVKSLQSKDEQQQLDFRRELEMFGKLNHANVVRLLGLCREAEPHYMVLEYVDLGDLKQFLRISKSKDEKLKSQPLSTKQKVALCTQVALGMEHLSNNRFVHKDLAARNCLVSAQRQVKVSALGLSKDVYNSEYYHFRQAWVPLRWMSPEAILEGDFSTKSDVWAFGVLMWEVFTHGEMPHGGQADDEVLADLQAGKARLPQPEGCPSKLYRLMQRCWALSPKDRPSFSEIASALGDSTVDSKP
Experiment [5] deals with GPC1 on HEK293A cells (human) (UniProt P35052). Described as above.
Chain of UniProt P35052 (P35052 24-530 limits assumed): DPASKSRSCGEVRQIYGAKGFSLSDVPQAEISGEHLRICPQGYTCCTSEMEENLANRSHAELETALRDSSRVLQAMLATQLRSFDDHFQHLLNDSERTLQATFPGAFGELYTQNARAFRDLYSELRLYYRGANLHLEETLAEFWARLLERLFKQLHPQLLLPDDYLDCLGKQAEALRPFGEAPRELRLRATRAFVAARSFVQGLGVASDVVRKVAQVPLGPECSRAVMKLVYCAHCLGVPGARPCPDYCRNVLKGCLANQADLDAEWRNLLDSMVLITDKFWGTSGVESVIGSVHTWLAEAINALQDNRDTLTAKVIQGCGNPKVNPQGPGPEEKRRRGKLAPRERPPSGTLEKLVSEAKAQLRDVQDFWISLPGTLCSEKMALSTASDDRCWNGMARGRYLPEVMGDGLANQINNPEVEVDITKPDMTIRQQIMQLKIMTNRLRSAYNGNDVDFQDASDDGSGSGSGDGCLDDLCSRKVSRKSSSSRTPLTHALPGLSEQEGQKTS
In experiment [6] the target is PTK7 on Rat2 fibroblasts (rat). The experiment can be described thus: HATRIC-LRC (LRC-TriCEPS) ligand-receptor capture on Rat2 fibroblasts, LC-MS/MS; reference TRFE control ligand.
Experiment [7] concerns the target GPC1 on Rat2 fibroblasts (rat) (UniProt P35053). Described as above.
Chain of UniProt P35053 (P35053 24-530): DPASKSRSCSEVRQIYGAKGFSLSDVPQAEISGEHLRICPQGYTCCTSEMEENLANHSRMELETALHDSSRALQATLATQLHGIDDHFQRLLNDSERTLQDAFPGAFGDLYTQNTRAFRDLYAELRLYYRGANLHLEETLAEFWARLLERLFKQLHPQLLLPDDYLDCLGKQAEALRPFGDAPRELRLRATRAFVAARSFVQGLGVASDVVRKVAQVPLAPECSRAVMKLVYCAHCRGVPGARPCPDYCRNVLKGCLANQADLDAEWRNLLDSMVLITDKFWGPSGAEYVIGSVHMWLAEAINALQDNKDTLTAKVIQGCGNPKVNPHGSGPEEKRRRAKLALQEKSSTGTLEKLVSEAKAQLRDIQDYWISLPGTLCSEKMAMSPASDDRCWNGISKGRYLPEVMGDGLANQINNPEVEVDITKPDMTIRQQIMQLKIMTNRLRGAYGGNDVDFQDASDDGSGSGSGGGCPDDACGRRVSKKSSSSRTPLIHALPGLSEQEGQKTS
In experiment [8] the target is CCN1 found in the Rat2 cell screen (rat) (UniProt Q9ES72). The description is as above.
Chain of UniProt Q9ES72 (Q9ES72 25-379 limits assumed): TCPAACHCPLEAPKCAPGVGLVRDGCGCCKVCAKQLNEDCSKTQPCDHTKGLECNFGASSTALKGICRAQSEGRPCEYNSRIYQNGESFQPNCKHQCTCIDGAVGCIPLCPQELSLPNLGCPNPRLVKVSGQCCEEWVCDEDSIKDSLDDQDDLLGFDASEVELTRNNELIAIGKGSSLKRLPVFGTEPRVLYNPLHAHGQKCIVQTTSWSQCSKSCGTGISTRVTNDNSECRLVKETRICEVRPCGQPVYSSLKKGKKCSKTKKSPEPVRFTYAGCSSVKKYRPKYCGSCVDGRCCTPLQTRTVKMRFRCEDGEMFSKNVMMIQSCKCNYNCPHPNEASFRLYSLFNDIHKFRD
For experiment [9], the target named is GPC4 on HEK293A cells (human) (UniProt O75487). Nature of the experiment: HATRIC-LRC (LRC-TriCEPS) ligand-receptor capture on HEK293A cells, LC-MS/MS; reference TRFE control ligand.
In experiment [10] the target is CCN1 found in the HEK293A cell screen (human) (UniProt O00622). The description is as above.
For experiment [11], the target named is PTK7 on HEK293A cells (human) (UniProt Q13308). Described as above.
Experiment [12] concerns the target GPC1 on HEK293A cells (human) (UniProt P35052). Described as above.
In experiment [13] the target is PTK7 on Rat2 fibroblasts (rat). The experiment can be described thus: HATRIC-LRC (LRC-TriCEPS) ligand-receptor capture on Rat2 fibroblasts, LC-MS/MS; reference BSA control ligand.
The target of experiment [14] is GPC1 on Rat2 fibroblasts (rat) (UniProt P35053). The description is as above.
Experiment [15] addresses CCN1 found in the Rat2 cell screen (rat) (UniProt Q9ES72). The experiment is described as above.

This passage reports log 2 (FC), TRFE group against d34CCN2 group (log2 fold change), log 2 (FC) enrichment relative to BSA (log2 fold change) and log 2 (FC) enrichment relative to TRFE (log2 fold change) results from US20260041702A1.

Chain of UniProt O75487 (O75487 19-529 limits assumed): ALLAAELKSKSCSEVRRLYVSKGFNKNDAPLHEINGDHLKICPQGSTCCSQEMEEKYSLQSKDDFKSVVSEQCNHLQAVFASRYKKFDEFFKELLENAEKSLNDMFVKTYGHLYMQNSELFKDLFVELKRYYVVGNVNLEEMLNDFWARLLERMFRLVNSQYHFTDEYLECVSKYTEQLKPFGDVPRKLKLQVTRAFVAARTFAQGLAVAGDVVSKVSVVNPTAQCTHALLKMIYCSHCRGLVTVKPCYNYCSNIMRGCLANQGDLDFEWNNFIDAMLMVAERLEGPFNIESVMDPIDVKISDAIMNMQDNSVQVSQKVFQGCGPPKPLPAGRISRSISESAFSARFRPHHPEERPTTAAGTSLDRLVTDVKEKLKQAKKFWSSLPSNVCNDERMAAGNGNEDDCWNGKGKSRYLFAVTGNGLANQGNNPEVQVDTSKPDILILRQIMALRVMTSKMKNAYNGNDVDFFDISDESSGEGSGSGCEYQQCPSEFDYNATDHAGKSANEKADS
Chain of UniProt Q99376 (Q99376 whole entry): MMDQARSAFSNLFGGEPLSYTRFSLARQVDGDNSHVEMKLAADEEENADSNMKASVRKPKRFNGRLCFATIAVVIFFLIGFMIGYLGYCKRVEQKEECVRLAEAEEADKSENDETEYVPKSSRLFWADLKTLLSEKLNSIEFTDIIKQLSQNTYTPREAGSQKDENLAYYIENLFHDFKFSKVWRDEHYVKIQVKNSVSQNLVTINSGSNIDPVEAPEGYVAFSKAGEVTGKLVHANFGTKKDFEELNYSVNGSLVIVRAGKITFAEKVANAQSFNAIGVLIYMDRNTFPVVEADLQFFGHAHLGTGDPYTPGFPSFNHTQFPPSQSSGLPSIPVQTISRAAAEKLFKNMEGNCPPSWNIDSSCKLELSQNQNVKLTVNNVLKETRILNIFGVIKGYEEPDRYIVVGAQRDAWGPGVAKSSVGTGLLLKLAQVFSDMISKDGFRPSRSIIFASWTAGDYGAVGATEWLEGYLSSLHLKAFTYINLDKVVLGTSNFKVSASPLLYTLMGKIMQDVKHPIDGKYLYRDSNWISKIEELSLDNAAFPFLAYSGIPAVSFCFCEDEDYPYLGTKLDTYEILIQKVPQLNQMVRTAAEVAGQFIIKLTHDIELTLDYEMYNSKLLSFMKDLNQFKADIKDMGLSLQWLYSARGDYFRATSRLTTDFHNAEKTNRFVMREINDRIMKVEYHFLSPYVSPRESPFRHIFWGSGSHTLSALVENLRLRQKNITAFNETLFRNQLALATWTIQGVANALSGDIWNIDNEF

As for “transferrin (TRFE) coupled to TriCEPS v3.0 (ligand)”, in experiment [1], the log 2 (FC), TRFE group against d34CCN2 group (log2 fold change) is -2.8.

B1: recombinant, human C-terminal (domains III-IV) CCN2 coupled to TriCEPS v3.0 (ligand, UniProt P29279 197-349, looked up)
chain: ANCLVQTTEWSACSKTCGMGISTRVTNDNASCRLEKQSRLCMVRPCEADLEENIKKGKKCIRTPKISKPIKFELSGCTSMKTYRAKFCGVCTDGRCCTPHRTTTLPVEFKCPDGEVMKKNMMFIKTCACHYNCPGDNDIFESLYYRKMYGDMA
modifications: coupled to the trifunctional TriCEPS v3.0 molecule (site of coupling not stated)
With B1, the log 2 (FC) enrichment relative to BSA (log2 fold change) came out at 2.85 in experiment [2]; 5.63 in experiment [3]; 3.26 in experiment [4]; 2.85 in experiment [5]; 2.7 in experiment [13]; 4.2 in experiment [14]. For the same molecule, in experiment [15], the log 2 (FC) enrichment relative to BSA (log2 fold change) came to 3.4. The log 2 (FC) enrichment relative to TRFE (log2 fold change) amounted to 3 in experiment [6]; 4.4 in [7]; 4.1 in [8]; 2.84 in [9]; 4.73 in [10]; 3.09 in experiment [11]. The log 2 (FC) enrichment relative to TRFE (log2 fold change) in experiment [12] is 4.19.
